To fix the notation:
B2: Rsc8, subunit of RSC (natural protein)
chain: MSDTEKDKDVPMVDSHEATEEPPTTSTNTPSFPHLAQEQAKEESATLGAEVAHKKINYEQEAQKLEEKALRFLAKQTHPVIIPSFASWFDISKIHEIEKRSNPDFFNDSSRFKTPKAYKDTRNFIINTYRLSPYEYLTITAVRRNVAMDVASIVKIHAFLEKWGLINYQIDPRTKPSLIGPSFTGHFQVVLDTPQGLKPFLPENVIKQEVEGGDGAEPQVKKEFPVNLTIKKNVYDSAQDFNALQDESRNSRQIHKVYICHTCGNESINVRYHNLRARDTNLCSRCFQEGHFGANFQSSDFIRLENNGNSVKKNWSDQEMLLLLEGIEMYEDQWEKIADHVGGHKRVEDCIEKFLSLPIEDNYIREVVGSTLNGKGGDSRDGSVSGSKLMECVNDAVQTLLQGDDKLGKVSDKSREISEKYIEESQAIIQELVKLTMEKLESKFTKLCDLETQLEMEKLKYVKESEKMLNDRLSLSKQILDLNKSLEELNVSKKLVLISEQVDSGIQLVEKDQEGDDEDGNTATGHGVKRVGKEGEEVGEGDSIAKLQPQVYKPWSL
B7: Sth1, ATPase subunit of RSC (enzyme)
chain: MLQEQSELMSTVMNNTPTTVAALAAVAAASETNGKLGSEEQPEITIPKPRSSAQLEQLLYRYRAIQNHPKENKLEIKAIEDTFRNISRDQDIYETKLDTLRKSIDKGFQYDEDLLNKHLVALQLLEKDTDVPDYFLDLPDTKNDNTTAIEVDYSEKKPIKISADFNAKAKSLGLESKFSNATKTALGDPDTEIRISARISNRINELERLPANLGTYSLDDCLEFITKDDLSSRMDTFKIKALVELKSLKLLTKQKSIRQKLINNVASQAHHNIPYLRDSPFTAAAQRSVQIRSKVIVPQTVRLAEELERQQLLEKRKKERNLHLQKINSIIDFIKERQSEQWSRQERCFQFGRLGASLHNQMEKDEQKRIERTAKQRLAALKSNDEEAYLKLLDQTKDTRITQLLRQTNSFLDSLSEAVRAQQNEAKILHGEEVQPITDEEREKTDYYEVAHRIKEKIDKQPSILVGGTLKEYQLRGLEWMVSLYNNHLNGILADEMGLGKTIQSISLITYLYEVKKDIGPFLVIVPLSTITNWTLEFEKWAPSLNTIIYKGTPNQRHSLQHQIRVGNFDVLLTTYEYIIKDKSLLSKHDWAHMIIDEGHRMKNAQSKLSFTISHYYRTRNRLILTGTPLQNNLPELWALLNFVLPKIFNSAKTFEDWFNTPFANTGTQEKLELTEEETLLIIRRLHKVLRPFLLRRLKKEVEKDLPDKVEKVIKCKLSGLQQQLYQQMLKHNALFVGAGTEGATKGGIKGLNNKIMQLRKICNHPFVFDEVEGVVNPSRGNSDLLFRVAGKFELLDRVLPKFKASGHRVLMFFQMTQVMDIMEDFLRMKDLKYMRLDGSTKTEERTEMLNAFNAPDSDYFCFLLSTRAGGLGLNLQTADTVIIFDTDWNPHQDLQAQDRAHRIGQKNEVRILRLITTDSVEEVILERAMQKLDIDGKVIQAGKFDNKSTAEEQEAFLRRLIESETNRDDDDKAELDDDELNDTLARSADEKILFDKIDKERMNQERADAKAQGLRVPPPRLIQLDELPKVFREDIEEHFKKEDSEPLGRIRQKKRVYYDDGLTEEQFLEAVEDDNMSLEDAIKKRREARERRRLRQNGTKENEIETLENTPEASETSLIENNSFTAAVDEETNADKETTASRSKRRSSRKKRTISIVTAEDKENTQEESTSQENGGAKVEEEVKSSSVEIINGSESKKKKPKLTVKIKLNKTTVLENNDGKRAEEKPESKSPAKKTAAKKTKTKSKSLGIFPTVEKLVEEMREQLDEVDSHPRTSIFEKLPSKRDYPDYFKVIEKPMAIDIILKNCKNGTYKTLEEVRQALQTMFENARFYNEEGSWVYVDADKLNEFTDEWFKEHSS

Common to all, as to assay: cryo-EM structure
For data set [1], the target named is B7.
Data set [2] deals with the molecule itself.
The target in data set [3] is B2.
The target of data set [4] is histone H4 (Xenopus laevis) (Xenopus laevis, UniProt P62799 2-103).

By stoichiometry N is commonly meant a count of units in the complex or per binding partner.

B1: Arp9, actin-related protein, subunit of RSC (natural protein)
chain: MAPFRQDSILIIYPRSQTTLVQFGLNEETFTVPELEIPTQIYRTTRQDGSYTYHSTNKDNKAELIKPIQNGEIIDISAFTQFLRLIFVSILSDRANKNQDAFEAELSNIPLLLITHHSWSQSDLEIITQYVFESLEINNLIQLPASLAATYSMISLQNCCIIDVGTHHTDIIPIVDYAQLDHLVSSIPMGGQSINDSLKKLLPQWDDDQIESLKKSPIFEVLSDDAKKLSSFDFGNENEDEDEGTLNVAEIITSGRDTREVLEERERGQKVKNVKNSDLEFNTFWDEKGNEIKVGKQRFQGCNNLIKNISNRVGLTLDNIDDINKAKAVWENIIIVGGTTSISGFKEALLGQLLKDHLIIEPEEEKSKREEEAKSVLPAATKKKSKFMTNSTAFVPTIEYVQCPTVIKLAKYPDYFPEWKKSGYSEIIFLGAQIVSKQIFTHPKDTFYITREKYNMKGPAALWDVQF
On to B1, for which the binding result in data set [1] is listed as “binds”.

Regarding B2, the “stoichiometry N” value in data set [2] worked out at 2.

B3: Arp7, actin-related protein, subunit of RSC (natural protein)
chain: MTLNRKCVVIHNGSHRTVAGFSNVELPQCIIPSSYIKRTDEGGEAEFIFGTYNMIDAAAEKRNGDEVYTLVDSQGLPYNWDALEMQWRYLYDTQLKVSPEELPLVITMPATNGKPDMAILERYYELAFDKLNVPVFQIVIEPLAIALSMGKSSAFVIDIGASGCNVTPIIDGIVVKNAVVRSKFGGDFLDFQVHERLAPLIKEENDMENMADEQKRSTDVWYEASTWIQQFKSTMLQVSEKDLFELERYYKEQADIYAKQQEQLKQMDQQLQYTALTGSPNNPLVQKKNFLFKPLNKTLTLDLKECYQFAEYLFKPQLISDKFSPEDGLGPLMAKSVKKAGASINSMKANTSTNPNGLGTSHINTNVGDNNSTASSSNISPEQVYSLLLTNVIITGSTSLIEGMEQRIIKELSIRFPQYKLTTFANQVMMDRKIQGWLGALTMANLPSWSLGKWYSKEDYETLKRDRKQSQATNATN
On to B3, for which the binding result in data set [1] is on record as “binds”.

B4: Rtt102, subunit of RSC (natural protein)
chain: MDPQTLITKANKVSYYGNPTSKESWRYDWYQPSKVSSNVQQPQQQLGDMENNLEKYPFRYKTWLRNQEDEKNLQRESCEDILDLKEFDRRILKKSLMTSHTKGDTSKATGAPSANQGDEALSVDDIRGAVGNSEAIPGLSAGVNNDNTKESKDVKMN
Consider B4, for which the binding result in data set [1] is reported as “binds”.

B5: Rsc6, subunit of RSC (natural protein)
chain: MVTQTNPVPVTYPTDAYIPTYLPDDKVSNLADLKKLIEMDSRLDLYLTRRRLDTSINLPTNTKTKDHPPNKEMLRIYVYNTTESSPRSDSGTPADSGKTTWTLRIEGKLLHESANGKHPFSEFLEGVAVDFKRLKPLGMGKKRKRDSSLSLPLNLQQPEYNDQDSTMGDNDNGEDEDSAEAESREEIVDALEWNYDENNVVEFDGIDIKRQGKDNLRCSITIQLRGVDGGKVQYSPNLATLIGMQTGSVNDAVYSIYKYILINNLFVTEQTEAQDGSNDAEDSSNENNNKNGAGDDDGVEGSTPKDKPELGEVKLDSLLQKVLDTNAAHLPLMNVVQTVNKLVSPLPPIILDYTIDLSKDTTYGATTLDVDVSHILHQPQPQPNLQKEEETDAEDTAKLREITKLALQLNSSAQKYQFFHELSLHPRETLTHYLWSSKQNELVLQGDQYFNEDAARTSDIYSNNNNDRSLMGNISLLYSQGRL
Turning to B5, the binding result in data set [3] is “binds”.

B6: Sfh1, subunit of RSC (natural protein)
chain: MSHQNQLIPQAYISNFHNRLTNEDDGIPIFTMAQQTRQHKRAKVVNYAEYDNDLFDEFNMNGSNFNNADTHYKDNAVSHENTPALTNGVTMDGSEYNVLENMNGADSIISNNKYDAGSNMVVESLSGLNSNNNASNGPSNKAQAQDIGNAVLPDLQDQHHNPFNILRYPKIRDTFINGKVVSPYRLNTDQETKANANSGEAIMIPITLDIEHMGHTIKDQFLWNYNDDSISPEEFASIYCKDLDMTSATLQTQIANIIKEQLKDLENIAATEIMSDLHVIINLTCNLQDRFFEDNFQWNLNDKSLTPERFATSIVQDLGLTREFIPLISQSLHETILKIKKDWVDGHLIQDHVPNDAAFGYLSGIRLDIDELGSNWCPRVEILTKEEIQKREIEKERNLRRLKRETDRLSRRGRRRLDDLETTMRM
On to B6, for which, in data set [3], the binding result was “binds”.

B7: the binding result in data set [4] is listed as “binds”.
